Here are results for 2 substances from US10174359.

One data set deals with cyclin B1-cdk1 complex (UniProt P14635).
For data set [1], the system named is separase sensor, wild-type Scc1 (142-467), histone H2B localization-targeting sequence.

Chain of cyclin B1-cdk1 complex (P14635 whole entry, looked up, one chain of several): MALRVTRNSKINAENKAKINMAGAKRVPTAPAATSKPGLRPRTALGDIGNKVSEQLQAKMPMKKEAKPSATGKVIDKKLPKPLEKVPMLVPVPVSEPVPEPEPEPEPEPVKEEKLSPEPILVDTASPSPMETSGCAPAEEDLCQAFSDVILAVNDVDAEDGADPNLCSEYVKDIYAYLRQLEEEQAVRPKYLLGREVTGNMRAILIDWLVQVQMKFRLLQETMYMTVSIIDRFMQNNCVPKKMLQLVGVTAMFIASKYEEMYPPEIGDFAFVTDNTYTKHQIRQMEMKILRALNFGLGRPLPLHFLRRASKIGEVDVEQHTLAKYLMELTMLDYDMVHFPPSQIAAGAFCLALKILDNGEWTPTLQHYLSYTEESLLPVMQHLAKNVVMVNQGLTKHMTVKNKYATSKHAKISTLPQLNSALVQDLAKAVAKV

Regarding “myc-tagged mouse separase, wild-type (WT)”, in the data set with cyclin B1-cdk1 complex, the “cdk1 activity (histone H1 kinase assay)” value is recorded as “cdk1 activity was markedly inhibited in the separase-bound fraction” and the “kinase activity (histone H1 as a substrate)” value is listed as “in the separase-bound fraction, kinase activity is inhibited (separase-bound cyclin B1-cdk1)”.
Take separase: the “cleavage of the sensor (immunoblot with anti-GFP antibody, FIG. 2D)” value in data set [1] was “The separase sensor localized in chromosome in the cells in anaphase is cleaved”.
